Literature values, collected in PMC3394898.

Biological target: NTSR1 (Mus musculus) (UniProt O88319)
Chain of UniProt O88319 (O88319 whole entry): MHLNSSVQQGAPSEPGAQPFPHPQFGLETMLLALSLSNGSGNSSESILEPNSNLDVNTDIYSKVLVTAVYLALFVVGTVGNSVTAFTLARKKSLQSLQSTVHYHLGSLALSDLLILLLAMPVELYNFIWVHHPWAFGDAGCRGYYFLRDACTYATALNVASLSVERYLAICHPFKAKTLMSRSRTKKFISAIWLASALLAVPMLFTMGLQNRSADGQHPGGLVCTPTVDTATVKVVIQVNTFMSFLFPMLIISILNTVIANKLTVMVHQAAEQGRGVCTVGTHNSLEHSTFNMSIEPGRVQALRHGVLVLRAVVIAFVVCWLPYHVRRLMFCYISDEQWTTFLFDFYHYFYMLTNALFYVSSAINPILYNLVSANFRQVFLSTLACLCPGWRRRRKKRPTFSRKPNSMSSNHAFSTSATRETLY

- Kd: 5 nM
Substance: neurotensin (NTS) (from UniProt P30990)
